Numbered stars: 1 amine (or outer) side, 2 acyl side, 3 side chain; on linkers, the order of the positions; unused ones are H or OH. Bridge positions count the residues as written; N and C are the ends. Side chains are listed from the residue outwards. Ends that are not written are not given here. * marks the point of attachment. C20 diacid = O=C(O)CCCCCCCCCCCCCCCCCCC(=O)*; γGlu = O=C(O)[C@H](CCC(=O)[*:2])N[*:1]; AEEA = NCCOCCOCC(=O)O

The target of this test is T1, human amylin receptor (human, UniProt P30988 25-474; O60896 24-148, limits assumed).
T1 construct: whole, on cells; Calcitonin receptor plus RAMP-3 gives the amylin 3(a) receptor; membranes of Amylin 3(a)/CRE-luc cells were used; also called hAmylin-R; hAmylinR
T1 sequence (looked up) 1: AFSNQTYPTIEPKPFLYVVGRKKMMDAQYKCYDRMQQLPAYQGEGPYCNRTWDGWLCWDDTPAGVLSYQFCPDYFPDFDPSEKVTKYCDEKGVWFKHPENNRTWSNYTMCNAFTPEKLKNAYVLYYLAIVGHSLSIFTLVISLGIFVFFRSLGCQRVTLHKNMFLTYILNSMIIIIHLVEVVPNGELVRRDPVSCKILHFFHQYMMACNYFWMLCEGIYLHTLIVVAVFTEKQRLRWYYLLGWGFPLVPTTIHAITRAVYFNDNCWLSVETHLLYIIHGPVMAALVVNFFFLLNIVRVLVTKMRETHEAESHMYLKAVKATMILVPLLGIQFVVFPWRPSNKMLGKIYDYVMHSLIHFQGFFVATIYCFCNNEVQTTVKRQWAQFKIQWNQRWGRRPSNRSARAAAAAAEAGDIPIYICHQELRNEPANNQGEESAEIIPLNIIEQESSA
T1 sequence (looked up) 2: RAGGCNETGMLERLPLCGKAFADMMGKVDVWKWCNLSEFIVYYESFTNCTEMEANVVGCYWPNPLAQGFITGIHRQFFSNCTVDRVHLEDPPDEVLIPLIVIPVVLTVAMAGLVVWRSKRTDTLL
The experiment in a line: SPA competition binding, displacement of 125I-rat amylin from membranes with human amylin 3(a) receptor (Assay V). The essentials:
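SPA beads + BHK amylin 3(a)/CRE-luc membranes, 35 ng/μL final; buffer 50 mM Hepes pH 7.4, 1 mM CaCl2, 5 mM MgCl₂, 0.1% OA, 0.02% Tween20. 120 min, 25° C, shaken; scintillation count. IC₅₀ by one-site binding competition fit, taken as receptor affinity.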

B1: N^ε1-[2-[2-[2-(19-carboxynonadecanoylamino)ethoxy]ethoxy]acetyl]-[Arg17,Pro21,Pro27,His34]-h-amylin (peptide)
peptide: K([AEEA-C20 diacid])CNTATCATQRLANFLRHSSPNFGAIPSSTNVGHNTY-NH2
modifications: disulfide 2-7; N-terminus assumed
SMILES: CC[C@H](C)[C@H](NC(=O)[C@H](C)NC(=O)CNC(=O)[C@H](Cc1ccccc1)NC(=O)[C@H](CC(N)=O)NC(=O)[C@@H]1CCCN1C(=O)[C@H](CO)NC(=O)[C@H](CO)NC(=O)[C@H](Cc1c[nH]cn1)NC(=O)[C@H](CCCNC(=N)N)NC(=O)[C@H](CC(C)C)NC(=O)[C@H](Cc1ccccc1)NC(=O)[C@H](CC(N)=O)NC(=O)[C@H](C)NC(=O)[C@H](CC(C)C)NC(=O)[C@H](CCCNC(=N)N)NC(=O)[C@H](CCC(N)=O)NC(=O)[C@@H](NC(=O)[C@H](C)NC(=O)[C@@H]1CSSC[C@H](NC(=O)[C@@H](N)CCCCNC(=O)COCCOCCNC(=O)CCCCCCCCCCCCCCCCCCC(=O)O)C(=O)N[C@@H](CC(N)=O)C(=O)N[C@@H]([C@@H](C)O)C(=O)N[C@@H](C)C(=O)N[C@@H]([C@@H](C)O)C(=O)N1)[C@@H](C)O)C(=O)N1CCC[C@H]1C(=O)N[C@@H](CO)C(=O)N[C@@H](CO)C(=O)N[C@H](C(=O)N[C@@H](CC(N)=O)C(=O)N[C@H](C(=O)NCC(=O)N[C@@H](Cc1c[nH]cn1)C(=O)N[C@@H](CC(N)=O)C(=O)N[C@H](C(=O)N[C@@H](Cc1ccc(O)cc1)C(N)=O)[C@@H](C)O)C(C)C)[C@@H](C)O
notes: also called 17R, 21P, 27P, 34H
The molecule B1 registered a half-inhibitory concentration (IC50) of 0.119 nM.

B2: N^ε1-[2-[2-[2-[[2-[2-[2-[[(4S)-4-carboxy-4-(19-carboxynonadecanoylamino)butanoyl]amino]ethoxy]ethoxy]acetyl]amino]ethoxy]ethoxy]acetyl]-[Arg17,Pro21,Pro27,Pro31 … (peptide)
peptide: K([AEEA-AEEA-γGlu-C20 diacid])CNTATCATQRLANFLRHSSPNFGAIPSSTPVGSNTY-NH2
modifications: disulfide 2-7; N-terminus assumed
SMILES: CC[C@H](C)[C@H](NC(=O)[C@H](C)NC(=O)CNC(=O)[C@H](Cc1ccccc1)NC(=O)[C@H](CC(N)=O)NC(=O)[C@@H]1CCCN1C(=O)[C@H](CO)NC(=O)[C@H](CO)NC(=O)[C@H](Cc1c[nH]cn1)NC(=O)[C@H](CCCNC(=N)N)NC(=O)[C@H](CC(C)C)NC(=O)[C@H](Cc1ccccc1)NC(=O)[C@H](CC(N)=O)NC(=O)[C@H](C)NC(=O)[C@H](CC(C)C)NC(=O)[C@H](CCCNC(=N)N)NC(=O)[C@H](CCC(N)=O)NC(=O)[C@@H](NC(=O)[C@H](C)NC(=O)[C@@H]1CSSC[C@H](NC(=O)[C@@H](N)CCCCNC(=O)COCCOCCNC(=O)COCCOCCNC(=O)CC[C@H](NC(=O)CCCCCCCCCCCCCCCCCCC(=O)O)C(=O)O)C(=O)N[C@@H](CC(N)=O)C(=O)N[C@@H]([C@@H](C)O)C(=O)N[C@@H](C)C(=O)N[C@@H]([C@@H](C)O)C(=O)N1)[C@@H](C)O)C(=O)N1CCC[C@H]1C(=O)N[C@@H](CO)C(=O)N[C@@H](CO)C(=O)N[C@H](C(=O)N1CCC[C@H]1C(=O)N[C@H](C(=O)NCC(=O)N[C@@H](CO)C(=O)N[C@@H](CC(N)=O)C(=O)N[C@H](C(=O)N[C@@H](Cc1ccc(O)cc1)C(N)=O)[C@@H](C)O)C(C)C)[C@@H](C)O
notes: also called 17R, 21P, 27P, 31P
For the molecule B2, the IC50 worked out at 0.166 nM.

B3: N^ε1-[2-[2-[2-(19-carboxynonadecanoylamino)ethoxy]ethoxy]acetyl]-[His14,Arg17,Pro21,Pro27]-h-amylin (peptide)
peptide: K([AEEA-C20 diacid])CNTATCATQRLAHFLRHSSPNFGAIPSSTNVGSNTY-NH2
modifications: disulfide 2-7; N-terminus assumed
SMILES: CC[C@H](C)[C@H](NC(=O)[C@H](C)NC(=O)CNC(=O)[C@H](Cc1ccccc1)NC(=O)[C@H](CC(N)=O)NC(=O)[C@@H]1CCCN1C(=O)[C@H](CO)NC(=O)[C@H](CO)NC(=O)[C@H](Cc1c[nH]cn1)NC(=O)[C@H](CCCNC(=N)N)NC(=O)[C@H](CC(C)C)NC(=O)[C@H](Cc1ccccc1)NC(=O)[C@H](Cc1c[nH]cn1)NC(=O)[C@H](C)NC(=O)[C@H](CC(C)C)NC(=O)[C@H](CCCNC(=N)N)NC(=O)[C@H](CCC(N)=O)NC(=O)[C@@H](NC(=O)[C@H](C)NC(=O)[C@@H]1CSSC[C@H](NC(=O)[C@@H](N)CCCCNC(=O)COCCOCCNC(=O)CCCCCCCCCCCCCCCCCCC(=O)O)C(=O)N[C@@H](CC(N)=O)C(=O)N[C@@H]([C@@H](C)O)C(=O)N[C@@H](C)C(=O)N[C@@H]([C@@H](C)O)C(=O)N1)[C@@H](C)O)C(=O)N1CCC[C@H]1C(=O)N[C@@H](CO)C(=O)N[C@@H](CO)C(=O)N[C@H](C(=O)N[C@@H](CC(N)=O)C(=O)N[C@H](C(=O)NCC(=O)N[C@@H](CO)C(=O)N[C@@H](CC(N)=O)C(=O)N[C@H](C(=O)N[C@@H](Cc1ccc(O)cc1)C(N)=O)[C@@H](C)O)C(C)C)[C@@H](C)O
notes: also called 14H, 17R, 21P, 27P
In the case of B3, the IC50 stood at 0.061 nM.

B4: N^ε1-[2-[2-[2-[[2-[2-[2-[[(4S)-4-carboxy-4-(19-carboxynonadecanoylamino)butanoyl]amino]ethoxy]ethoxy]acetyl]amino]ethoxy]ethoxy]acetyl]-[Arg17,Pro21,Pro27,Glu35 … (peptide)
peptide: K([AEEA-AEEA-γGlu-C20 diacid])CNTATCATQRLANFLRHSSPNFGAIPSSTNVGSETY-NH2
modifications: disulfide 2-7; N-terminus assumed
SMILES: CC[C@H](C)[C@H](NC(=O)[C@H](C)NC(=O)CNC(=O)[C@H](Cc1ccccc1)NC(=O)[C@H](CC(N)=O)NC(=O)[C@@H]1CCCN1C(=O)[C@H](CO)NC(=O)[C@H](CO)NC(=O)[C@H](Cc1c[nH]cn1)NC(=O)[C@H](CCCNC(=N)N)NC(=O)[C@H](CC(C)C)NC(=O)[C@H](Cc1ccccc1)NC(=O)[C@H](CC(N)=O)NC(=O)[C@H](C)NC(=O)[C@H](CC(C)C)NC(=O)[C@H](CCCNC(=N)N)NC(=O)[C@H](CCC(N)=O)NC(=O)[C@@H](NC(=O)[C@H](C)NC(=O)[C@@H]1CSSC[C@H](NC(=O)[C@@H](N)CCCCNC(=O)COCCOCCNC(=O)COCCOCCNC(=O)CC[C@H](NC(=O)CCCCCCCCCCCCCCCCCCC(=O)O)C(=O)O)C(=O)N[C@@H](CC(N)=O)C(=O)N[C@@H]([C@@H](C)O)C(=O)N[C@@H](C)C(=O)N[C@@H]([C@@H](C)O)C(=O)N1)[C@@H](C)O)C(=O)N1CCC[C@H]1C(=O)N[C@@H](CO)C(=O)N[C@@H](CO)C(=O)N[C@H](C(=O)N[C@@H](CC(N)=O)C(=O)N[C@H](C(=O)NCC(=O)N[C@@H](CO)C(=O)N[C@@H](CCC(=O)O)C(=O)N[C@H](C(=O)N[C@@H](Cc1ccc(O)cc1)C(N)=O)[C@@H](C)O)C(C)C)[C@@H](C)O
notes: also called 17R, 21P, 27P, 35E
For the molecule B4, the IC50 amounted to 0.768 nM.

B5: N^ε1-[2-[2-[2-[[2-[2-[2-[[(4S)-4-carboxy-4-(19-carboxynonadecanoylamino)butanoyl]amino]ethoxy]ethoxy]acetyl]amino]ethoxy]ethoxy]acetyl]-[Arg17,Pro21,Pro27,His34 … (peptide)
peptide: K([AEEA-AEEA-γGlu-C20 diacid])CNTATCATQRLANFLRHSSPNFGAIPSSTNVGHNTY-NH2
modifications: disulfide 2-7; N-terminus assumed
SMILES: CC[C@H](C)[C@H](NC(=O)[C@H](C)NC(=O)CNC(=O)[C@H](Cc1ccccc1)NC(=O)[C@H](CC(N)=O)NC(=O)[C@@H]1CCCN1C(=O)[C@H](CO)NC(=O)[C@H](CO)NC(=O)[C@H](Cc1c[nH]cn1)NC(=O)[C@H](CCCNC(=N)N)NC(=O)[C@H](CC(C)C)NC(=O)[C@H](Cc1ccccc1)NC(=O)[C@H](CC(N)=O)NC(=O)[C@H](C)NC(=O)[C@H](CC(C)C)NC(=O)[C@H](CCCNC(=N)N)NC(=O)[C@H](CCC(N)=O)NC(=O)[C@@H](NC(=O)[C@H](C)NC(=O)[C@@H]1CSSC[C@H](NC(=O)[C@@H](N)CCCCNC(=O)COCCOCCNC(=O)COCCOCCNC(=O)CC[C@H](NC(=O)CCCCCCCCCCCCCCCCCCC(=O)O)C(=O)O)C(=O)N[C@@H](CC(N)=O)C(=O)N[C@@H]([C@@H](C)O)C(=O)N[C@@H](C)C(=O)N[C@@H]([C@@H](C)O)C(=O)N1)[C@@H](C)O)C(=O)N1CCC[C@H]1C(=O)N[C@@H](CO)C(=O)N[C@@H](CO)C(=O)N[C@H](C(=O)N[C@@H](CC(N)=O)C(=O)N[C@H](C(=O)NCC(=O)N[C@@H](Cc1c[nH]cn1)C(=O)N[C@@H](CC(N)=O)C(=O)N[C@H](C(=O)N[C@@H](Cc1ccc(O)cc1)C(N)=O)[C@@H](C)O)C(C)C)[C@@H](C)O
notes: as for B1
Regarding B5, the IC50 came to 0.568 nM.
